The nanobody polyreactivity screen of Harvey et al. (2022)

Experiment: yeast display, Sf9 membrane polyspecificity reagent, FACS + sequencing; frameworks hold sequencing errors
Outline: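 Synthetic nanobody libraries on Saccharomyces cerevisiae BJ5465 were galactose-induced for 36–48 hours, stained 1 hour at 4 °C with 10% biotinylated, detergent-solubilized Sf9 membrane reagent and enriched on streptavidin microbeads. FACS then separated cells into low and high (top ~1%) gates by anti-HA (expression) and streptavidin (reagent binding) fluorescence. Genes were colony-PCR amplified, MiSeq 2 × 250 sequenced and CDR-length filtered. A clone's polyreactivity label is that of its gate of origin.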

For “QVQLVESGGGLVQAGGSLRLSCAASGFIFQWYAMGWYRPAPGKERELVAGISAGSTNYADSVKGRFTISRDNAKNTVYLQMNSLKPEDTAVYYCAARDYYIPYYSPGYPYDYWGQGTQVTVSS”, the “polyreactivity (PSR sort gate)” value was “high polyreactivity”.
For “QVQLVESGGGLVQAGGSLRLSCAASGFIFRAYAMGWYRQAPGKERELVAAISRSGSRTYYADSVKGRFTISRDHAKNTVYLQMNSLKPEDTAVYYCAADHGSLLYDYWGQGTQVTVSS”, the “polyreactivity (PSR sort gate)” value was “high polyreactivity”.
For “QVQLVESGGGLVQAGGSLRLSCAASGFIFRAYAMGWYRQAPGKERELVAAISWRGTSTYYADSVKGRFTISRDNAKNTVYLQMNSLKPEDTAVYYCARRRYLPFSRSQGSEDYWGQGTQVTVSS”, the “polyreactivity (PSR sort gate)” value was “high polyreactivity”.
For “QVQLVESGGGLVQAGGSLRLSCAASGFIFRDYVMGWYRQAPGKERELVAAISYRDGSTYYADSVKGRFTISRDNAKNTVYLQMNSLKPEDTAVYYCNAPGYQGYEYWGQGTQVTVSS”, the “polyreactivity (PSR sort gate)” value was “low polyreactivity”.
With “QVQLVESGGGLVQAGGSLRLSCAASGFIFRFYAMGWYRQAPGKERELVAGISSSGGSTYYADSLKGRFTISRDNAKTTVYLQMNSLKPEDTAVYYCNAKRSDQSSKTFNYWGQGTQVTVSS” the “polyreactivity (PSR sort gate)” value was “low polyreactivity”.
For “QVQLVESGGGLVQAGGSLRLSCAASGFIFRFYAMGWYRQAPGKERELVAGISSSGGSTYYADSVKGRFTISRDNAKNTVYLQMNSLKPEDTAVYYCNAKRSDQSSKTFNYWGQGTQVTVSS”, the “polyreactivity (PSR sort gate)” value was “low polyreactivity”.
For “QVQLVESGGGLVQAGGSLRLSCAASGFIFRFYAMGWYRQAPGKERELVASISRRAGRTYYADSVKGRFTISRDNAKNTVYLQMNSLKPEDTAVYYCAASGFGSFRYSSTYDYWGQCTQVTVSS”, the “polyreactivity (PSR sort gate)” value was “high polyreactivity”.
With “QVQLVESGGGLVQAGGSLRLSCAASGFIFRGNTMGWYRQAPGKERELVAAISASGGSTYYADSVKGRFTISRDNAKNTVYLQMNSLKPEDTAVYYCNVAVIYRSRPYWYGMDYWGQGTQVTVSS” the “polyreactivity (PSR sort gate)” value was “high polyreactivity”.
For “QVQLVESGGGLVQAGGSLRLSCAASGFIFRGYAMGWYRQAPGKERELVAAISRRGGSTYYADSVKGRFTISRHNAKNTVYLLMNSLKPEDTAVYYCNADTTQQGNVRVGYWGQGTQVTVSS”, the “polyreactivity (PSR sort gate)” value was “high polyreactivity”.
In the case of “QVQLVESGGGLVQAGGSLRLSCAASGFIFRGYAMGWYRQAPGKERELVAAISTGGGRTYYADSVKGRFTISRDNAKNTVYLQMNSLKPEDTAVYYCNRRSYTQVLMDYWGQGTQVTVSS”, the “polyreactivity (PSR sort gate)” value is reported as “high polyreactivity”.
For “QVQLVESGGGLVQAGGSLRLSCAASGFIFRHNGMGWYRQAPGKERELVAAITKRGGDTYYADSVKGRFTISRDNAKNSVYLQMISLKREDTAVYYCTVDVRYPVSFDYDYWGQGNQVTVSS”, the “polyreactivity (PSR sort gate)” value was “low polyreactivity”.
For “QVQLVESGGGLVQAGGSLRLSCAASGFIFRHYAMGWYRQAPGKEREFVAAISYRGDSTYYADSVKGRFTISRDNAKNTVYLQMNSLKPEDTAVYYCAATYVSSAYYSYDYWGQGTQVTVSS”, the “polyreactivity (PSR sort gate)” value was “high polyreactivity”.
For “QVQLVESGGGLVQAGGSLRLSCAASGFIFRHYAMGWYRQAPGKERELVAGINTSGGSTHYADSVKGRFTISRDNAKNTVYLQMNSLKPEDTAVYYCAADVYRYYAGSRYYYWGQGSQVTVSS”, the “polyreactivity (PSR sort gate)” value was “low polyreactivity”.
For “QVQLVESGGGLVQAGGSLRLSCAASGFIFRINAMGWYRQAPGKERELVAAITSSGGSTYYADSVKGRFTISRDNAKNTVYLQMNSLKPEDTAVYYCAASRPRPPSSRRMDYWGQGTQVTVSS”, the “polyreactivity (PSR sort gate)” value was “high polyreactivity”.
For “QVQLVESGGGLVQAGGSLRLSCAASGFIFRIYAMGWYRQAPGKERELVAAITWDGVSTYYADSVKGRFTISRDNAKNTVYLQMNSLKPEDTAVFYCAARKRSYPYYYWGQGTQVNVSS”, the “polyreactivity (PSR sort gate)” value was “high polyreactivity”.
For “QVQLVESGGGLVQAGGSLRLSCAASGFIFRKYAMGWYRQAPGKERELVAAITASGGSTYYGDSVKGRFTISRDNAKNTVYLQLNSLKPEDTAVYYCATDFHGAERWLKYVYWGQGTQVTVSS”, the “polyreactivity (PSR sort gate)” value was “high polyreactivity”.
In the case of “QVQLVESGGGLVQAGGSLRLSCAASGFIFRKYAMGWYRQAPGKERELVAAITSSGGSTYYAGSVKGRFTISRDNAKNTVYLQMNSLKPEDTAVYYCAARLKQSGHDYWGQGTQVTVSS”, the “polyreactivity (PSR sort gate)” value is reported as “high polyreactivity”.
In the case of “QVQLVESGGGLVQAGGSLRLSCAASGFIFRLYAMGWYRQAPGKERELVAALSSGTSTYYADSVKGRFTISRDNAKNTVYLQMNSLKPEDSAVYYCAAVPRVNWSRYVYFWYDYWGQGTQVTVSS”, the “polyreactivity (PSR sort gate)” value is reported as “high polyreactivity”.
With “QVQLVESGGGLVQAGGSLRLSCAASGFIFRNYAMGWYRQAPGKERELVAAITGRGTYTYYADSVKGRFTISRDNAKNTVYLQMNSLKPEDTAVYYCAARSLALVYRKYDYWGQGTQVTVSS” the “polyreactivity (PSR sort gate)” value was “high polyreactivity”.
For “QVQLVESGGGLVQAGGSLRLSCAASGFIFRQNAMGWSRQAPGKDRELVAAISNAGITNYADSVKGRFTISRDNAKITVYLQMNSLKPEDTAVYYCAAVEFRDSTFVVVSSPTSKSDYWGQGTQVTVSS”, the “polyreactivity (PSR sort gate)” value was “low polyreactivity”.
In the case of “QVQLVESGGGLVQAGGSLRLSCAASGFIFRQYAMGWYRQAPGKERELVAAISVGGGRTYYADSVKGRFTISRDNAKNTVYLQMNSLKPEVTAVYYCAASNWHSRGSGEYYWGQGTQVTVSS”, the “polyreactivity (PSR sort gate)” value is reported as “high polyreactivity”.
For “QVQLVESGGGLVQAGGSLRLSCAASGFIFRRNAMGWYRQAPGKERELVAAIRFRSGSTYYAHSVKGRFTISRDNAKNTVYLQKNSLKPEDTAVYYCAADNKRSWRYAYNYWGQRTQVTVSS”, the “polyreactivity (PSR sort gate)” value was “high polyreactivity”.
For “QVQLVESGGGLVQAGGSLRLSCAASGFIFRRNAMGWYRQAPGKERELVAAIRQRGDSTYYADSVKGRFTISRDNAKNTVYLQMNSLKPEDTAVYYCATDHAYFHPEYDYWGQGTQVTVSS”, the “polyreactivity (PSR sort gate)” value was “low polyreactivity”.
For “QVQLVESGGGLVQAGGSLRLSCAASGFIFRRNAMGWYRQAPGKERELVAAITGGGGSTYYADSVKGRFTISRDNAKNTVYLQMNSLKPEDTAVYYCAVDWSRFYNRGGDYWGQGTQVTVSS”, the “polyreactivity (PSR sort gate)” value was “high polyreactivity”.
With “QVQLVESGGGLVQAGGSLRLSCAASGFIFRRNAMGWYRQAPGKERELVAAITKSGGSTYYADSVKGRFTISRDNAKNTVYLQMNSLKPEDTAVYYCAASDASGGGYWGQGTQVTVSS” the “polyreactivity (PSR sort gate)” value was “high polyreactivity”.
With “QVQLVESGGGLVQAGGSLRLSCAASGFIFRRNAMGWYRQAPGKERELVAVISSRGGTYYADSVKGRFTISRDNAKNTVYLQMNSLKPEDTAVYYCAVDRGKYFPYRYDYWGQGTQVTVSS” the “polyreactivity (PSR sort gate)” value was “high polyreactivity”.
With “QVQLVESGGGLVQAGGSLRLSCAASGFIFRRYAMGWYGQAPGKERELVAVIRSSGGSTYYADSVKGRFTISRDYAKNTVYLQMISLNPEDTAVYYCAAVSYSSYRYDYWGQGTQVTVSS” the “polyreactivity (PSR sort gate)” value was “high polyreactivity”.
With “QVQLVESGGGLVQAGGSLRLSCAASGFIFRRYAMGWYRPAPGKERELVAAITGGGGSTYYADSVKGRFTISRDNAKNTVYLQMNSLKPEDSAVYYCAASQARNYKIYDYWGQGTQVTVSS” the “polyreactivity (PSR sort gate)” value was “high polyreactivity”.
For “QVQLVESGGGLVQAGGSLRLSCAASGFIFRRYAMGWYRQAPGKERELVAAINYSGGSTYYADSVKGRFTISRDNAKNTVSLQMNSLKPEDTSVYYCNAFGLRYYEYDYWGQGTQVTVSS”, the “polyreactivity (PSR sort gate)” value was “low polyreactivity”.
With “QVQLVESGGGLVQAGGSLRLSCAASGFIFRRYAMGWYRQAPGKERELVAAISRGGGSTYYADSVKGRFTISRDNAKNTVYFQMNSLKPEDTAVYYCAARFVPYDAPLNERDYWGQGTQVTVSS” the “polyreactivity (PSR sort gate)” value was “high polyreactivity”.
For “QVQLVESGGGLVQAGGSLRLSCAASGFIFRRYAMGWYRQAPGKERELVAAISWSGGSTYYADSVKGRFTISRDNAKNTVYLQMNSLKPEDTAVYYCAKVPTSASPYDHWGQGTQVTVSS”, the “polyreactivity (PSR sort gate)” value was “high polyreactivity”.
